# In publication PMC11358308, “Structure-based humanization of a therapeutic antibody for multiple myeloma” (Journal of Molecular Medicine (Berlin, Germany), 2024):
# Changes are numbered by the printed parent chain. Numbers in names are those of the source.
# B1: J22.9-H, humanized IgG (all humanizing substitutions in VH and VL except A46L in VL) (antibody, V domains shown)
# VH: EVQLVESGGGLVQPGGSLRLSCAASGFTFSRYWMSWVRQAPGKGLVWVGEINPDSSTINYAPSLKDKFTISRDNAKNTLYLQMNSLRAEDTAVYYCASLYYDYGDAMDYWGQGTLVTVSS
# VL: EIVMTQSPATLSVSPGERATLSCKASQSVDSNVAWYQQKPGQAPRALIYSASLRFSGIPARFSGSGSGTEFTLTISSLQSEDFAVYYCQQYNNYPLTFGAGTKLELK
# notes: humanized VH (hVH, 16 changes against the mouse VH); human IgG1 heavy chain constant region, as told for J22.9-xi; Fab light chain in PDB 8QY9; whole IgG in SPR and FACS; source: expressed, purified
# B2: J22.9-FSY, humanized and CDR-optimized IgG (antibody, V domains shown)
# VH: B1 VH with M34F, D54S, M107Y
# VL: B1 VL with D30E
# notes: as the VH of m5 (J22.9-H); human IgG1 heavy chain constant region, as told for J22.9-xi; as the light chain of m5 (J22.9-H; no structure of this variant; source: expressed, purified)
# B3: J22.9-ISY Fab fragment (Fab, V domains shown)
# VH: B1 VH with M34I, D54S, M107Y
# VL: B1 VL with D30E
# notes: Fab heavy chain; as the light chain of m7 (light chain of J22.9-H with D30E); Crystallised in complex with BCMA
# B4: J22.9-ISY, humanized and CDR-optimized IgG (antibody, V domains shown)
# VH: B1 VH with M34I, D54S, M107Y
# VL: B1 VL with D30E
# notes: as the VH of m5 (J22.9-H; human IgG1 heavy chain constant region, as told for J22.9-xi; source: expressed, purified)
# B5: J22.9-xi, chimaeric mouse/human IgG (antibody, V domains shown)
# VH: QVQLQQSGGGLVQPGGSLKLSCAASGIDFSRYWMSWVRRAPGKGLEWIGEINPDSSTINYAPSLKDKFIISRDNAKNTLYLQMSKVRSEDTALYYCASLYYDYGDAMDYWGQGTSVTVSS
# VL: DIVMTQSQRFMTTSVGDRVSVTCKASQSVDSNVAWYQQKPRQSPKALIFSASLRFSGVPARFTGSGSGTDFTLTISNLQSEDLAEYFCQQYNNYPLTFGAGTKLELK
# notes: mouse VH of J22.9 (mVH); mouse VL of J22.9 (mVL); Fab light chain in PDB 4ZFO; IgG1; whole IgG immobilised in SPR
# Key:
# Conditions in all cases: both partners purified
# [1] = target: T1, human B-cell maturation antigen (BCMA), extracellular domain (Homo sapiens (Human)., UniProt Q02223); assay: SPR; ProteOn XPR36; whole IgG (15 µg/ml) immobilised on GLH chip by amine chemistry; BCMA as mobile phase in PBS with 0.005% Tween-20 (0.4-90 nM hBCMA, 2.7 nM-1 µM cBCMA); Kd from kon and koff, single-site model
# T1 construct: B-cell maturation antigen (BCMA), human; soluble form used as mobile phase in SPR and in the Fab:BCMA crystals; holds the DxL loop (L17) and H19; also called hBCMA; human BCMA
# cynomolgus BCMA = target: T2, cynomolgus BCMA (Macaca fascicularis, UniProt A0A2K5UD97); assay: as above
# T2 construct: B-cell maturation antigen (BCMA), cynomolgus monkey (macaque); differs from human BCMA at three positions: alanine 20 is aspartic acid, isoleucine 22 is lysine, asparagine 31 of hBCMA is deleted; also called cynoBCMA; cBCMA
# [2] = target: T1, human B-cell maturation antigen (BCMA), …; assay: crystal structure; Fab:BCMA complexes; 21% PEG 3350, 0.1 M BisTris pH 6.5, 5 mM CuCl2, 20 °C; molecular replacement
# T1 sequence (Q02223 1-54): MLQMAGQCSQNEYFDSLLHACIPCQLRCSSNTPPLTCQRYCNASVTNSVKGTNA
Binder,Kd [1] [nM],binding result (cynomolgus BCMA),binding result [1],binding result [2]
B1,15,binds,–,–
B2,–,binds,binds,–
B3,–,–,–,binds
B4,–,binds,binds,–
B5,0.28,binds,–,–
